Values of other authors in paper PMC9249222.

Columns and labels:
[1] = biological target: UBR5 HECT PAM2L (Homo sapiens) (UniProt O95071)
PAIP PAM2 (Homo sapiens) = PAIP PAM2 (Homo sapiens) (UniProt Q9H074)
PAIP PAM2 (Homo sapiens), sequence (Q9H074 116-143): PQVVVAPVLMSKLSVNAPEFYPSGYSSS

UBR5 MLLE, sequence (O95071 2377-2454): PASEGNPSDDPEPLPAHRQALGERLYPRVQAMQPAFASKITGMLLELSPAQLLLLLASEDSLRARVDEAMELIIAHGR

- Kd [1]: 50 µM
- Kd (PAIP PAM2 (Homo sapiens)): 3.4 µM
Substance: UBR5 MLLE (from UniProt O95071)
